{
  "source": "paper PMC7721900",
  "about": "“Assembly properties of bacterial tubulin homolog FtsZ regulated by the positive regulator protein ZipA and ZapA from Pseudomonas aeruginosa” (Scientific Reports, 2020)",
  "binders": {"B1": {"name": "EcFtsZ-T151C/Y222W labeled with Bodipy at Cys151 (natural protein, E. coli, UniProt P0A9A6 1-383, looked up)", "chain": "MFEPMELTNDAVIKVIGVGGGGGNAVEHMVRERIEGVEFFAVNTDAQALRKTAVGQTIQIGSGITKGLGAGANPEVGRNAADEDRDALRAALEGADMVFIAAGMGGGTGTGAAPVVAEVAKDLGILTVAVVTKPFNFEGKKRMAFAEQGICELSKHVDSLITIPNDKLLKVLGRGISLLDAFGAANDVLKGAVQGIAELITRPGLMNVDFADVRTVMSEMGWAMMGSGVASGEDRAEEAAEMAISSPLLEDIDLSGARGVLVNITAGFDLRLDEFETVGNTIRAFASDNATVVIGTSLDPDMNDELRVTVVATGIGMDKRPEITLVTNKQVQQPVMDRYQQHGMAPLTQEQKPVAKVVNDNAPQTAKEPDYLDIPAFLRKQAD", "modifications": "Bodipy-FL N-(2-aminoethyl)maleimide on Cys 151", "notes": "FtsZ, Escherichia coli, double mutant T151C/Y222W; in pET11b; Used mixed with a ninefold excess of unlabeled wild-type EcFtsZ; also called Bodipy labeled FtsZ; labeled EcFtsZ; source: bacterially expressed (pET11b), purified (30% ammonium sulfate, source Q 10/10)"}, "B2": {"name": "ZapA from Escherichia coli (natural protein, E. coli, UniProt P0ADS2 1-109, looked up)", "chain": "MSAQPVDIQIFGRSLRVNCPPDQRDALNQAADDLNQRLQDLKERTRVTNTEQLVFIAALNISYELAQEKAKTRDYAASMEQRIRMLQQTIEQALLEQGRITEKTNQNFE", "notes": "ZapA, Escherichia coli; cloned in pET15b at NdeI/BamHI; Removal of the His tag is told only for PaFtsZ; also called EcZapA; source: E. coli BL21 (pET15b), purified (Talon column)"}, "B3": {"name": "N-terminal truncated PaZipA (26-289) (domain or fragment, P. aeruginosa, UniProt Q9I3I5 26-289, looked up)", "chain": "RRMRGGKGKLKFKLDRSFANLPDDDGDSAELLGPARVVEHREPSFDEQDLPSVSAREAKERKGGKRQEEPRQGDLDLDEGLALEADPSDAAETVEPRKGKSKGRKEKEREKAPAVAAEPAPVDEVLIINVIARDESGFKGPALLQNILESGLRFGDMDIFHRHESMAGNGEILFSMANAVKPGTFDLDDIDNFSTRAVSFFLGLPGPRHPKQAFDVMVAAARKLAHELNGELKDEQRSVLTAQTIEHYRQRIIDHERRSLMQKR", "notes": "ZipA, Pseudomonas aeruginosa, residues 26-289; N-terminally truncated to remove the transmembrane domain; Removal of the His tag is told only for PaFtsZ; also called ZipA from Pseudomonas aeruginosa; source: E. coli BL21 (pET15b), purified (Talon column)"}, "B4": {"name": "ZapA from Pseudomonas aeruginosa (natural protein, P. aeruginosa, UniProt Q9HTW3 1-104, looked up)", "chain": "MSQSNTLTVQILDKEYCINCPDDERANLESAARYLDGKMREIRSSGKVIGADRVAVMAALNITHDLLHRKERLDQESSSTRERVRELLDRVDRALANPADAGEA", "notes": "ZapA, Pseudomonas aeruginosa; cloned in pET15b at NdeI/BamHI; Removal of the His tag is told only for PaFtsZ; also called PaZapA; source: E. coli BL21 (pET15b), purified (Talon column)"}},
  "conditions_in_all_cases": "both partners purified",
  "key": {"[1]": {"target": "T1, FtsZ from Escherichia coli (E. coli, UniProt P0A9A6 1-383)", "T1 construct": "FtsZ, Escherichia coli, wild type; in pET11b; also called EcFtsZ; wild type FtsZ; source: bacterially expressed (pET11b), purified (30% ammonium sulfate, source Q 10/10)", "T1 sequence (looked up)": "B1 chain with C151T, W222Y", "experiment": "Bodipy fluorescence quenching assay of assembly; HMK buffer, room temperature; 7 µM EcFtsZ (less than 10% Bodipy labeled T151C/Y222W with wild type), alone or with 10 µM ZapA or ZipA"}, "[2]": {"target": "T1, FtsZ from Escherichia coli", "experiment": "light scattering; HMK buffer, room temperature, 340 nm; 7 µM EcFtsZ plus 10 µM EcZapA"}, "[3]": {"target": "T2, EcFtsZ-F268C labeled with fluorescein (donor) or tetramethylrhodamine (acceptor) (E. coli, UniProt P0A9A6 1-383, F268C, single cysteine labeled separately with Fluorescein 5-maleimide (donor) or Tetramethylrhodamine 5-maleimide (acceptor))", "T2 construct": "FtsZ, Escherichia coli, single cysteine mutant F268C (printed as L268C in the results); in pET11b; also called EcFtsZ-L268C; source: bacterially expressed (pET11b), purified (30% ammonium sulfate, source Q 10/10)", "T2 sequence (looked up)": "B1 chain with C151T, W222Y, F268C", "experiment": "FRET or BRET; HMK buffer; donor- and acceptor-labeled EcFtsZ-F268C polymerized separately for 5 min, alone or with 10 µM ZipA or ZapA, then mixed; decrease of donor fluorescence, single exponential fit; 7 µM EcFtsZ; subunit exchange at steady state"}, "[4]": {"target": "T3, FtsZ from Pseudomonas aeruginosa (P. aeruginosa, UniProt P47204 1-394)", "T3 construct": "FtsZ, Pseudomonas aeruginosa; cloned in pET15b at NdeI/BamHI; Forms protofilaments and bundles with GTP; also called PaFtsZ; source: E. coli BL21 (pET15b), purified (Talon column, thrombin, source Q 10/10)", "T3 sequence (looked up)": "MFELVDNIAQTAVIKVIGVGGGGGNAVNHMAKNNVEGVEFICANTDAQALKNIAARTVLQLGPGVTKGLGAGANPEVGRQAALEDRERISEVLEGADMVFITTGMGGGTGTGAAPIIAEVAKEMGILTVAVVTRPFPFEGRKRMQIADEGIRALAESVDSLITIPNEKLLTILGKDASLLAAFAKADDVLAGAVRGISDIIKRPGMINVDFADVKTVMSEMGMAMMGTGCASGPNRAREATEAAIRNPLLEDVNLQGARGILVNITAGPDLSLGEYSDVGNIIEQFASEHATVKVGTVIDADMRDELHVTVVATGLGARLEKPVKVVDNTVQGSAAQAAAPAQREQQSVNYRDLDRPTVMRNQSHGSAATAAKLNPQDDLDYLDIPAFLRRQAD", "experiment": "negative stain electron microscopy; MMK buffer (50 mM MES, 100 mM KAc, 5 mM MgAc, pH 6.5), GTP, 1-5 min at room temperature; 5 µM PaFtsZ alone, or with 10 µM ZipA or ZapA"}, "[5]": {"target": "T3, FtsZ from Pseudomonas aeruginosa", "experiment": "negative stain electron microscopy; HMK buffer (50 mM HEPES, 100 mM KAc, 5 mM MgAc, pH 7.5), GTP, 1-5 min at room temperature; 3 or 5 µM PaFtsZ alone, or 5 µM PaFtsZ with 10 µM ZipA or ZapA"}},
  "note": "Numbering of substitutions follows the chain as printed. Numbers in names are those of the source.",
  "data": [
    {"binder": "B1", "values": [
      {"measurement": "binding result", "setting": "[1]", "value": "binds"}
    ]},
    {"binder": "B2", "values": [
      {"measurement": "binding result", "setting": "[2]", "value": "binds"},
      {"measurement": "binding result", "setting": "[3]", "value": "binds"}
    ]},
    {"binder": "B3", "values": [
      {"measurement": "binding result", "setting": "[4]", "value": "binds"}
    ]},
    {"binder": "B4", "values": [
      {"measurement": "binding result", "setting": "[5]", "value": "binds"}
    ]}
  ]
}
